Measured values from patent US20200199192A1 (SHIRE NPS PHARMACEUTICALS, published 2020).

Experiments:
[1] = molecular target: the molecule itself; test: microscale thermophoresis (MST), self-association; MST
Protocol: Microscale thermophoresis (MST) and nano differential scanning fluorimetry (NanoDSF) were performed to characterize the dimer-monomer transition. MST was used to determine the monomer/dimer equilibrium dissociation constant Kd. MST is based on thermodriven diffusion of molecules while NanoDSF is based on Trp fluorescence and is commonly used for thermostability Tm.

[2] = molecular target: the molecule itself; test: NanoDSF at room temperature, self-association
From the text: Only the tryptophan fluorescence from the protein contributes to the signal. If tryptophan is buried or stable, the peak is at 330 nm and if the tryptophan is exposed or flexible, the peak is at 350 nm.

B1: teduglutide (peptide)
peptide: HGDGSFSDEMNTILDNLAARDFINWLIQTKITD
notes: also called Gattex
- Kd [1]: 24 µM
- Kd [2]: 77 µM
